Experimental data reported in patent US20010039258A1, “Active agent transport systems” (Emisphere Technologies, Inc., priority 1990, published 2001).
Bridge positions count the residues as written; N and C are the ends. Ends that are not written are not given here.

Experiments:
[1] = DSC of rhGh, effect of ionic strength; assay type: physicochemical; conditions: pH 7.5
[2] = DSC of rhGh, effect of pH; assay type: physicochemical
Method: (§1) Scanning calorimetry was performed using 5 mg 0.83 mM porcine insulin (MW 6,000) per mL in 50 mM phosphate buffer, pH 7.5. All thermograms were performed on a Microcal MC-2 scanning calorimeter equipped with the DA2 data acquisition system operated in the upscale mode at 1° C./min (up to 90° C.), and data points were collected at 20 second intervals. All scans were initiated at least 20 degrees below the observed transitions for the active agent. All thermograms were corrected for baseline subtraction and normalized for the concentration of macromolecule. According to the methods of the Johns Hopkins Biocalorimetry Center, See, for example, Ramsay et al. Biochemistry (1990) 29:8677-8693; Schon et al. Biochemistry (1989) 28:5019-5024 (1990) 29: 781-788.
5 mg/mL rhGh were dissolved in buffer (0.17 mM in 50 mM phosphate buffer, assuming a molecular weight of 20,000). The pH of the solution was adjusted to the desired value, and all curves were corrected by baseline subtraction.
The effect of pH on structure was assessed by DSC according to the procedure of Example 9 where individual solutions were prepared in phosphate buffer ranging in pH value from 2.0 to 6.0.

[3] = DSC of rhGh, effect of GuHCl; assay type: physicochemical; conditions: pH 7.5
Method: as §1
An initial scan of rhGh was performed at 10 mg/mL in the absence of GuHCl (0.33 mM assuming 20,000 molecular weight). Subsequently, the concentration of rhGh was lowered to 5 mg/mL (0.17 mM) in 50 mM phosphate buffer, pH 7.5 containing varying concentrations of GuHCl. Each subsequent thermogram was corrected by background subtraction of a 0.5 M guanidine-phosphate buffer solution. The thermograms were corrected by subtraction of a 0.5M NaCl-phosphate buffer blank. Scans were performed according to the procedure of Example 9.

[4] = In vivo delivery of rhGH in rats, sublingual, intranasal, oral; conditions: rat, no carrier, drug dose 6 mg/kg
Method: Dosing compositions were prepared by mixing the modified amino acids and recombinant human growth hormone (rhGH) as listed in Table 16 below in a phosphate buffer solution at a pH of about 7-8.
Rats were administered the dosing composition by sublingual or intranasal administration. Delivery was evaluated by using an ELISA assay for rhGH from Medix Biotech, Inc. For intracolonic administration, a sample was prepared and dosed to fasted rats at 25 mg/kg of carrier in a buffered solution containing propylene glycol (0-50%) and 1 mg/kg rhGH.
rhGH ([…]) was administered by oral gavage to a rat, and delivery was evaluated according to the procedure of Example 41A.

[5] = In vivo rhGH in rats, subcutaneous, with delivery agents; design: species or system Sprague-Dawley rats; conditions: rat; no delivery agent (Example 43A)
Method: (§2) The delivery agents were reconstituted with distilled water and adjusted to pH 7.2-8.0 with either aqueous hydrochloric acid or aqueous sodium hydroxide. A stock solution of rhGH was prepared by mixing rhGH, D-mannitol and glycine and dissolving this mixture in 2% glycerol/water. The stock solution was then added to the delivery agent solution. Several delivery agent to active agent ratios were studied.
Male Sprague-Dawley rats weighing 200-250 g were fasted for 24 hours and administered ketamine (44 mg/kg) and chlorpromazine (1.5 mg/kg) 15 minutes prior to dosing. The rats were administered one of the dosing solutions described above by subcutaneous injection, intranasal instillation, or sublingual instillation. Blood samples were collected serially from the tail artery for serum calcium concentration determination or serum rhGH concentrations. The dose of rhGH administered in these experiments was 0.1 mg/kg.
Serum rhGH concentrations were quantified by an rhGH enzyme immunoassay test kit.
rhGH (1 mg/kg) was administered by oral gavage to a rat, and delivery was evaluated according to the procedure of Example 43.

[6] = DSC of rhGh, effect of pH; assay type: physicochemical; conditions: pH 7.5 (10 mg/mL)
serum calcium = test: In vivo salmon calcitonin in rats, subcutaneous, with delivery agents; design: species or system Sprague-Dawley rats; conditions: sCT 0.2 μg/kg, no delivery agent (Example 55A)
Method: as §2, with “sCT” for “rhGH”, “by” for “by mixing rhGH, D-mannitol and glycine and”, “sCT” for “this mixture”, “citric acid (0.085N).” for “2% glycerol/water.”, “Several different” for “Several”
Male Sprague-Dawley rats weighing 200-250 g were fasted for 24 hours and administered ketamine (44 mg/kg) and chlorpromazine (1.5 mg/kg) 15 minutes prior to dosing. The rats were administered one of the dosing solutions described above by subcutaneous injection. Blood samples were collected serially from the tail artery for serum calcium concentration.
Serum calcium concentrations were quantified by the o-cresolphthalein complexone method (Sigma) using a UV/VIS spectrophotometer (Perkin Elmer).
Salmon calcitonin was administered by oral gavage to rats, and delivery was evaluated according to the Procedure of Example 55.

rhGh: recombinant human growth hormone
Tm (Cp, max) ([1]; 0.0 M NaCl): 75.2 °C | ΔH° ([1]; 0.0 M NaCl): 191.0 kcal/mol | Tm (Cp, max) ([1]; 0.5 M NaCl): 75.8 °C | ΔH° ([1]; 0.5 M NaCl): 89.7 kcal/mol | ΔH° ([1]; 1.0 M NaCl): 50.5 kcal/mol | Tm (Cp, max) ([1]; 10.0 M NaCl): 76.5 °C | Tm (Cp, max) ([2]; pH 2.0): no transition observed | ΔH° ([2]; pH 2.0): no transition observed | Tm (Cp, max) ([2]; pH 3.0): no transition observed | ΔH° ([2]; pH 3.0): no transition observed | Tm (Cp, max) ([2]; pH 3.5): no transition observed | ΔH° ([2]; pH 3.5): no transition observed | Tm (Cp, max) ([2]; pH 4.0): ≈73.0 °C | ΔH° ([2]; pH 4.0): broad transition | Tm (Cp, max) ([2]; pH 5.0): 75.0 °C | ΔH° ([2]; pH 5.0): 161 kcal/mol | Tm (Cp, max) ([2]; pH 6.0): 75.2 °C | ΔH° ([2]; pH 6.0): 191 kcal/mol | DOMAIN A Tm (Cp, max) ([3]; 0.5 M GuHCl): 71.5 °C | DOMAIN B Tm (Cp, max) ([3]; 0.5 M GuHCl): not defined, | ΔH° ([3]; 0.5 M GuHCl): 48 kcal/mol | DOMAIN A Tm (Cp, max) ([3]; 1.0 M GuHCl): 70.9 °C | DOMAIN B Tm (Cp, max) ([3]; 1.0 M GuHCl): absent | ΔH° ([3]; 1.0 M GuHCl): 109 kcal/mol | DOMAIN A Tm (Cp, max) ([3]; 1.5 M GuHCl): 69.7 °C | DOMAIN B Tm (Cp, max) ([3]; 1.5 M GuHCl): absent | ΔH° ([3]; 1.5 M GuHCl): 12 kcal/mol | DOMAIN A Tm (Cp, max) ([3]; 2.0 M GuHCl): 70.0 °C | DOMAIN B Tm (Cp, max) ([3]; 2.0 M GuHCl): absent | ΔH° ([3]; 2.0 M GuHCl): 58 kcal/mol | DOMAIN A Tm (Cp, max) ([3]; 2.5 M GuHCl): 70.7 °C | DOMAIN B Tm (Cp, max) ([3]; 2.5 M GuHCl): absent | ΔH° ([3]; 2.5 M GuHCl): 99 kcal/mol | DOMAIN A Tm (Cp, max) ([3]; no GuHCl, rhGh 10 mg/mL): 72.6 °C | DOMAIN B Tm (Cp, max) ([3]; no GuHCl, rhGh 10 mg/mL): 74.3 °C | ΔH° ([3]; no GuHCl, rhGh 10 mg/mL): 632 kcal/mol | Mean Peak Serum Levels of rhGH [4]: <10 ± 10 ng/mL | Peak Serum [rhGH] [5]: 4 ± 2 ng/mL | Tm (Cp, max), transition a) [6]: a) 73 °C | Tm (Cp, max), transition b) [6]: b) 75 °C | ΔH°, (a) + (b) [6]: (a) + (b) = 632 kcal/mol

sCT: Salmon Calcitonin (CSNLSTCVLGKLSQELHKLQTYPRTNTGSGTP-NH2; disulfide 1-7; ends not checked)
Percent Decrease in Serum Calcium (serum calcium): 17 ± 2%
